Data on 4 molecules can be found in patent US20190292537, “Prokaryotic Argonaute Proteins and Uses Thereof” (Wageningen Universiteit, published 2019).

Holding throughout (details): tags: His-MBP N-terminal (TEV added during purification)
Data set [1] deals with T1, CbAgo (Clostridium butyricum, UniProt P0DYD1 SEQ:1-748). The experiment in a line: EMSA; DNA guide, RNA target, 37 C. How it is done:
(§1) CbAgo (10 pmol) was pre-incubated with the desired polynucleotide guide (RNA guide: 7024, DNA guide: 3466, 10 pmol) for 5 min at 37° C. This was followed by addition of a target polynucleotide (RNA target: […]: 7043, 10 pmol) and another incubation step of 5 min at 37° C. The reactions were then resolved on a 6% Native PAGE gel and stained with SYBR gold.
In general terms: A gel shift assay detects complexes by their altered migration in electrophoresis.

The target of data set [2] is T1, CbAgo. The data set can be described thus: EMSA; RNA guide, RNA target, 37 C. How it is done:
as §1

Data set [3] concerns the target T1, CbAgo. The experiment in a line: EMSA; DNA guide preloaded, 37 C; target printed as 7043 in text, 7023 in Table 2. How it is done:
as §1

The target in data set [4] is T1, CbAgo. The data set can be described thus: EMSA; RNA guide, DNA target, 37 C; target printed as 7043 in text, 7023 in Table 2. How it is done: as §1

B1: DNA guide 3466 ; RNA target 7022 (ssDNA ; ssRNA)
DNA: TGAGGTAGTAGGTTGTATAGT
RNA: AAACGACGGCCAGUGCCAAGCUUACUAUACAACCUACUACCUCAU
modifications: 5'-phosphate ; 5'-phosphate
On to B1, for which the binding result in the data set with CbAgo [1] is reported as “binds”.

B2: RNA guide 7024 ; RNA target 7022 (ssRNA ; ssRNA)
RNA 1: UGAGGUAGUAGGUUGUAUAGU
RNA 2: B1 RNA
modifications: 5'-phosphate ; 5'-phosphate
On to B2, for which the binding result with CbAgo [2] is listed as “binds”.

B3: DNA guide 3466 ; DNA target 7023 (ssDNA ; ssDNA)
DNA 1: TGAGGTAGTAGGTTGTATAGT
DNA 2: AAACGACGGCCAGTGCCAAGCTTACTATACAACCTACTACCTCAT
modifications: 5'-phosphate ; 5'-phosphate
B3: the binding result in the data set with CbAgo [3] is recorded as “binds”.

B4: RNA guide 7024 ; DNA target 7023 (ssRNA ; ssDNA)
RNA: UGAGGUAGUAGGUUGUAUAGU
DNA: B3 DNA 2
modifications: 5'-phosphate ; 5'-phosphate
B4: in the data set with CbAgo [4], the binding result is given as “binds”.
